Results as given in patent US12247238B2, “Mogroside biocatalysis methods and products” (The Coca-Cola Company, priority 2019, dated 2025).

Assay: β-galactosidase ONPG activity assay
Format: biochemical
Settings: oNPG substrate, over 30 minutes
Method: Standard β-galactosidase assays were performed at room temperature using o-nitrophenyl-β-D-galactopyranoside (ONPG, Sigma) as a substrate in […] with detection of o-nitrophenol release at 420 nm (UV-Spectra Max Spectrophotometer, Molecular Devices, USA). A typical reaction contained 50 mM sodium citrate buffer pH 5.6, 10 mM magnesium chloride and 100 mM potassium chloride with 2 mM ONPG and the desired amount of enzyme (usually […]). Partially purified AoBG (Sigma G5160, USA) was used as a positive control at a final concentration of 1 U mL−1. Vmax was calculated using the SpectraMax Plus software (Molecular Devices, USA) and when required kinetics were determined by varying the concentration of substrate and kinetic determinants calculated using Hyper™ (J. S. Easterby, Liverpool University).
Cells expressing enzyme variants grown in buffered minimal medium were induced for 72 hr with 1% methanol (refreshed every 24 hr), the culture supernatant harvested and assayed for standard ONPG activity over 30 minutes and mogroside V activity at pH 5.6, 37° C. for 72 hrs. The resultant activity data (Table 2) identified E200 and D258 as the likely catalytic pair for acid/base and nucleophilic attack of mogroside V by the A. oryzae β-glucosidase enzyme.

Row | Molecule | oNPG
1 | E200A: A. oryzae β-galactosidase variant, E200A (protein, UniProt Q2UCU3 19-1005, looked up, variant E200A) Beta-galactosidase A: ASIKHRLNGFTILEHPDPAKRDLLQDIVTWDDKSLFINGERIMLFSGEVHPFRLPVPSLWLDIFHKIRALGFNCVSFYIDWALLEGKPGDYRAEGIFALEPFFDAAKEAGIYLIARPGSYINAEVSGGGFPGWLQRVNGTLRSSDEPFLKATDNYIANAAAAVAKAQITNGGPVILYQPENAYSGGCCGVKYPDADYMQYVMDQARKADIVVPFISNDASPSGHNAPGSGTGAVDIYGHDSYPLGFDCANPSVWPEGKLPDNFRTLHLEQSPSTPYSLLEFQAGAFDPWGGPGFEKCYALVNHEFSRVFYRNDLSFGVSTFNLYMTFGGTNWGNLGHPGGYTSYDYGSPITETRNVTREKYSDIKLLANFVKASPSYLTATPRNLTTGVYTDTSDLAVTPLIGDSPGSFFVVRHTDYSSQESTSYKLKLPTSAGNLTIPQLEGTLSLNGRDSKIHVVDYNVSGTNIIYSTAEVFTWKKFDGNKVLVLYGGPKEHHELAIASKSNVTIIEGSDSGIVSTRKGSSVIIGWDVSSTRRIVQVGDLRVFLLDRNSAYNYWVPELPTEGTSPGFSTSKTTASSIIVKAGYLLRGAHLDGADLHLTADFNATTPIEVIGAPTGAKNLFVNGEKASHTVDKNGIWSSEVKYAAPEIKLPGLKDLDWKYLDTLPEIKSSYDDSAWVSADLPKTKNTHRPLDTPTSLYSSDYGFHTGYLIYRGHFVANGKESEFFIRTQGGSAFGSSVWLNETYLGSWTGADYAMDGNSTYKLSQLESGKNYVITVVIDNLGLDENWTVGEETMKNPRGILSYKLSGQDASAITWKLTGNLGGEDYQDKVRGPLNEGGLYAERQGFHQPQPPSESWESGSPLEGLSKPGIGFYTAQFDLDLPKGWDVPLYFNFGNNTQAARAQLYVNGYQYGKFTGNVGPQTSFPVPEGILNYRGTNYVALSLWALESDGAKLGSFELSYTTPVLTGYGNVESPEQPKYEQRKGAY | INACTIVE
2 | D258Q: A. oryzae β-galactosidase variant, D258Q (protein, UniProt Q2UCU3 19-1005, looked up, variant D258Q) Beta-galactosidase A: ASIKHRLNGFTILEHPDPAKRDLLQDIVTWDDKSLFINGERIMLFSGEVHPFRLPVPSLWLDIFHKIRALGFNCVSFYIDWALLEGKPGDYRAEGIFALEPFFDAAKEAGIYLIARPGSYINAEVSGGGFPGWLQRVNGTLRSSDEPFLKATDNYIANAAAAVAKAQITNGGPVILYQPENEYSGGCCGVKYPDADYMQYVMDQARKADIVVPFISNDASPSGHNAPGSGTGAVDIYGHQSYPLGFDCANPSVWPEGKLPDNFRTLHLEQSPSTPYSLLEFQAGAFDPWGGPGFEKCYALVNHEFSRVFYRNDLSFGVSTFNLYMTFGGTNWGNLGHPGGYTSYDYGSPITETRNVTREKYSDIKLLANFVKASPSYLTATPRNLTTGVYTDTSDLAVTPLIGDSPGSFFVVRHTDYSSQESTSYKLKLPTSAGNLTIPQLEGTLSLNGRDSKIHVVDYNVSGTNIIYSTAEVFTWKKFDGNKVLVLYGGPKEHHELAIASKSNVTIIEGSDSGIVSTRKGSSVIIGWDVSSTRRIVQVGDLRVFLLDRNSAYNYWVPELPTEGTSPGFSTSKTTASSIIVKAGYLLRGAHLDGADLHLTADFNATTPIEVIGAPTGAKNLFVNGEKASHTVDKNGIWSSEVKYAAPEIKLPGLKDLDWKYLDTLPEIKSSYDDSAWVSADLPKTKNTHRPLDTPTSLYSSDYGFHTGYLIYRGHFVANGKESEFFIRTQGGSAFGSSVWLNETYLGSWTGADYAMDGNSTYKLSQLESGKNYVITVVIDNLGLDENWTVGEETMKNPRGILSYKLSGQDASAITWKLTGNLGGEDYQDKVRGPLNEGGLYAERQGFHQPQPPSESWESGSPLEGLSKPGIGFYTAQFDLDLPKGWDVPLYFNFGNNTQAARAQLYVNGYQYGKFTGNVGPQTSFPVPEGILNYRGTNYVALSLWALESDGAKLGSFELSYTTPVLTGYGNVESPEQPKYEQRKGAY | INACTIVE

Next, values leading:

Row | oNPG | Molecule
3 | INACTIVE | E200A; E298A: A. oryzae β-galactosidase double variant E200A, E298A (protein, UniProt Q2UCU3 19-1005, looked up, variant E200A E298A) Beta-galactosidase A: ASIKHRLNGFTILEHPDPAKRDLLQDIVTWDDKSLFINGERIMLFSGEVHPFRLPVPSLWLDIFHKIRALGFNCVSFYIDWALLEGKPGDYRAEGIFALEPFFDAAKEAGIYLIARPGSYINAEVSGGGFPGWLQRVNGTLRSSDEPFLKATDNYIANAAAAVAKAQITNGGPVILYQPENAYSGGCCGVKYPDADYMQYVMDQARKADIVVPFISNDASPSGHNAPGSGTGAVDIYGHDSYPLGFDCANPSVWPEGKLPDNFRTLHLEQSPSTPYSLLAFQAGAFDPWGGPGFEKCYALVNHEFSRVFYRNDLSFGVSTFNLYMTFGGTNWGNLGHPGGYTSYDYGSPITETRNVTREKYSDIKLLANFVKASPSYLTATPRNLTTGVYTDTSDLAVTPLIGDSPGSFFVVRHTDYSSQESTSYKLKLPTSAGNLTIPQLEGTLSLNGRDSKIHVVDYNVSGTNIIYSTAEVFTWKKFDGNKVLVLYGGPKEHHELAIASKSNVTIIEGSDSGIVSTRKGSSVIIGWDVSSTRRIVQVGDLRVFLLDRNSAYNYWVPELPTEGTSPGFSTSKTTASSIIVKAGYLLRGAHLDGADLHLTADFNATTPIEVIGAPTGAKNLFVNGEKASHTVDKNGIWSSEVKYAAPEIKLPGLKDLDWKYLDTLPEIKSSYDDSAWVSADLPKTKNTHRPLDTPTSLYSSDYGFHTGYLIYRGHFVANGKESEFFIRTQGGSAFGSSVWLNETYLGSWTGADYAMDGNSTYKLSQLESGKNYVITVVIDNLGLDENWTVGEETMKNPRGILSYKLSGQDASAITWKLTGNLGGEDYQDKVRGPLNEGGLYAERQGFHQPQPPSESWESGSPLEGLSKPGIGFYTAQFDLDLPKGWDVPLYFNFGNNTQAARAQLYVNGYQYGKFTGNVGPQTSFPVPEGILNYRGTNYVALSLWALESDGAKLGSFELSYTTPVLTGYGNVESPEQPKYEQRKGAY
4 | INACTIVE | D258A: A. oryzae β-galactosidase variant, D258A (protein, UniProt Q2UCU3 19-1005, looked up, variant D258A) Beta-galactosidase A: ASIKHRLNGFTILEHPDPAKRDLLQDIVTWDDKSLFINGERIMLFSGEVHPFRLPVPSLWLDIFHKIRALGFNCVSFYIDWALLEGKPGDYRAEGIFALEPFFDAAKEAGIYLIARPGSYINAEVSGGGFPGWLQRVNGTLRSSDEPFLKATDNYIANAAAAVAKAQITNGGPVILYQPENEYSGGCCGVKYPDADYMQYVMDQARKADIVVPFISNDASPSGHNAPGSGTGAVDIYGHASYPLGFDCANPSVWPEGKLPDNFRTLHLEQSPSTPYSLLEFQAGAFDPWGGPGFEKCYALVNHEFSRVFYRNDLSFGVSTFNLYMTFGGTNWGNLGHPGGYTSYDYGSPITETRNVTREKYSDIKLLANFVKASPSYLTATPRNLTTGVYTDTSDLAVTPLIGDSPGSFFVVRHTDYSSQESTSYKLKLPTSAGNLTIPQLEGTLSLNGRDSKIHVVDYNVSGTNIIYSTAEVFTWKKFDGNKVLVLYGGPKEHHELAIASKSNVTIIEGSDSGIVSTRKGSSVIIGWDVSSTRRIVQVGDLRVFLLDRNSAYNYWVPELPTEGTSPGFSTSKTTASSIIVKAGYLLRGAHLDGADLHLTADFNATTPIEVIGAPTGAKNLFVNGEKASHTVDKNGIWSSEVKYAAPEIKLPGLKDLDWKYLDTLPEIKSSYDDSAWVSADLPKTKNTHRPLDTPTSLYSSDYGFHTGYLIYRGHFVANGKESEFFIRTQGGSAFGSSVWLNETYLGSWTGADYAMDGNSTYKLSQLESGKNYVITVVIDNLGLDENWTVGEETMKNPRGILSYKLSGQDASAITWKLTGNLGGEDYQDKVRGPLNEGGLYAERQGFHQPQPPSESWESGSPLEGLSKPGIGFYTAQFDLDLPKGWDVPLYFNFGNNTQAARAQLYVNGYQYGKFTGNVGPQTSFPVPEGILNYRGTNYVALSLWALESDGAKLGSFELSYTTPVLTGYGNVESPEQPKYEQRKGAY
5 | INACTIVE | E200Q; E298Q: A. oryzae β-galactosidase double variant E200Q, E298Q (protein, UniProt Q2UCU3 19-1005, looked up, variant E200Q E298Q) Beta-galactosidase A: ASIKHRLNGFTILEHPDPAKRDLLQDIVTWDDKSLFINGERIMLFSGEVHPFRLPVPSLWLDIFHKIRALGFNCVSFYIDWALLEGKPGDYRAEGIFALEPFFDAAKEAGIYLIARPGSYINAEVSGGGFPGWLQRVNGTLRSSDEPFLKATDNYIANAAAAVAKAQITNGGPVILYQPENQYSGGCCGVKYPDADYMQYVMDQARKADIVVPFISNDASPSGHNAPGSGTGAVDIYGHDSYPLGFDCANPSVWPEGKLPDNFRTLHLEQSPSTPYSLLQFQAGAFDPWGGPGFEKCYALVNHEFSRVFYRNDLSFGVSTFNLYMTFGGTNWGNLGHPGGYTSYDYGSPITETRNVTREKYSDIKLLANFVKASPSYLTATPRNLTTGVYTDTSDLAVTPLIGDSPGSFFVVRHTDYSSQESTSYKLKLPTSAGNLTIPQLEGTLSLNGRDSKIHVVDYNVSGTNIIYSTAEVFTWKKFDGNKVLVLYGGPKEHHELAIASKSNVTIIEGSDSGIVSTRKGSSVIIGWDVSSTRRIVQVGDLRVFLLDRNSAYNYWVPELPTEGTSPGFSTSKTTASSIIVKAGYLLRGAHLDGADLHLTADFNATTPIEVIGAPTGAKNLFVNGEKASHTVDKNGIWSSEVKYAAPEIKLPGLKDLDWKYLDTLPEIKSSYDDSAWVSADLPKTKNTHRPLDTPTSLYSSDYGFHTGYLIYRGHFVANGKESEFFIRTQGGSAFGSSVWLNETYLGSWTGADYAMDGNSTYKLSQLESGKNYVITVVIDNLGLDENWTVGEETMKNPRGILSYKLSGQDASAITWKLTGNLGGEDYQDKVRGPLNEGGLYAERQGFHQPQPPSESWESGSPLEGLSKPGIGFYTAQFDLDLPKGWDVPLYFNFGNNTQAARAQLYVNGYQYGKFTGNVGPQTSFPVPEGILNYRGTNYVALSLWALESDGAKLGSFELSYTTPVLTGYGNVESPEQPKYEQRKGAY
